Where a chain is given by its changes, count along the chain named.
Columns and labels:
Assay in all cases: SPR, antibody captured, C2 as analyte;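 further: biacore SPR at 37 °C, anti-C2 mAbs captured via goat anti-human IgG on CM5 chips, double-referenced sensorgrams fit to a 1:1 kinetic or steady-state model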
human C2 A444S = target: T1, human C2 A444S (human, UniProt P06681 21-752)
T1 sequence: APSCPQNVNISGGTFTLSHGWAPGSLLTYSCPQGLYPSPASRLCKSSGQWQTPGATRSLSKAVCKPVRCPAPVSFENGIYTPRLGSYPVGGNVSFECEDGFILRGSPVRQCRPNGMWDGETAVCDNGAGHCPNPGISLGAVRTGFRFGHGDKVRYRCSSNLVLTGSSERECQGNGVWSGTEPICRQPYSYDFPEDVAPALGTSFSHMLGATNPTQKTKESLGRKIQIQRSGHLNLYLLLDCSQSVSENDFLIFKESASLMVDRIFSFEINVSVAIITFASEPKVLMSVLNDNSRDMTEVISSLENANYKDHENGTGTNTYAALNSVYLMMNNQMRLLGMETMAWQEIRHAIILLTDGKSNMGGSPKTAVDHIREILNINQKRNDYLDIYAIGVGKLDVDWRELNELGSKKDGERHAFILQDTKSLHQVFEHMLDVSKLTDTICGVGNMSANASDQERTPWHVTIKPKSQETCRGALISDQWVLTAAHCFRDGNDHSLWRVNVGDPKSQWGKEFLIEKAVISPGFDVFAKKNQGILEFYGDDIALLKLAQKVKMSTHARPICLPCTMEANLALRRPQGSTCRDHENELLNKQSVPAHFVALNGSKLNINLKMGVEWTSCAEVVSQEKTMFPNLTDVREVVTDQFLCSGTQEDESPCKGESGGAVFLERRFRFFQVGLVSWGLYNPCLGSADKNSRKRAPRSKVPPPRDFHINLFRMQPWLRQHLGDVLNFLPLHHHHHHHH

human C2 E686A = target: T2, human C2 E686A (human, UniProt P06681 21-752)
T2 sequence: T1 sequence with S424A, E666A

human C2 K329A = target: T3, human C2 K329A (human, UniProt P06681 21-752)
T3 sequence: T1 sequence with K309A, S424A

human C2 L701A = target: T4, human C2 L701A (human, UniProt P06681 21-752)
T4 sequence: T1 sequence with S424A, L681A

B1: RF16-226 (antibody, human IgG4 S228P, lambda)
heavy: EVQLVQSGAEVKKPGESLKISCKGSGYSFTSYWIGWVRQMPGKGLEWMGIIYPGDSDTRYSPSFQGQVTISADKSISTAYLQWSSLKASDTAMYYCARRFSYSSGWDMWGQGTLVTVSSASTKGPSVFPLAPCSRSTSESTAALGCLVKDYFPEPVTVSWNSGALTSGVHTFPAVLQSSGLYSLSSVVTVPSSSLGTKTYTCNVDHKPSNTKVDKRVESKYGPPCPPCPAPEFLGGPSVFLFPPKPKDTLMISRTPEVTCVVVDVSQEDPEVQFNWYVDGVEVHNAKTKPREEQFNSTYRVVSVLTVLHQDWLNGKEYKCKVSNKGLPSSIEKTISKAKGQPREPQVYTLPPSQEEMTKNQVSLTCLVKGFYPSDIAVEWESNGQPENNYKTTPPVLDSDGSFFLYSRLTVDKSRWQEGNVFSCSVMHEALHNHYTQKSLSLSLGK
light: SYELTQPPSVSVSPGQTARITCSGDALTSKYVAWYQQKSGLAPLLVIYEDTRRPSGIPAKFSGSSSGSVATLTISGAHGDDEADYYCYSTDASGHQRVFGGGTKLTVLSQPKAAPSVTLFPPSSEELQANKATLVCLISDFYPGAVTVAWKADGSPVKAGVETTKPSKQSNNKYAASSYLSLTPEQWKSHRSYSCQVTHEGSTVEKTVAPTECS
notes: pH-dependent anti-C2 antibody from a phage display library; also called WT
- Kd (human C2 A444S): 19.8 nM
- Kd (human C2 E686A): 47.3 nM
- Kd (human C2 K329A): 25.6 nM
- Kd (human C2 L701A): 165 nM

From patent US20220332804A1 (CSL INNOVATION, published 2022)
